Measurements published in patent US20090099029.

T1: Bovine, dephosphorylated, Myelin Basic Protein (MBP), P02687
T1 chain: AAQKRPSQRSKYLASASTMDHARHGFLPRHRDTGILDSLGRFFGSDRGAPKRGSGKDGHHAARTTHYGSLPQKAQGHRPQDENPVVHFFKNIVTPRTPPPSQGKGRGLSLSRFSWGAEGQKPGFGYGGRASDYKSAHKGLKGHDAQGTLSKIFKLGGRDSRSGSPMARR

B1: EPHB4 (protein)
chain: LCLRKQSNGREAEYSDKHGQYLIGHGTKVYIDPFTYEDPNEAVREFAKEIDVSYVKIEEVIGAGEFGEVCRGRLKAPGKKESCVAIKTLKGGYTERQRREFLSEASIMGQFEHPNIIRLEGVVTNSMPVMILTEFMENGALDSFLRLNDGQFTVIQLVGMLRGIASGMRYLAEMSYVHRDLAARNILVNSNLVCKVSDFGLSRFLEENSSDPTYTSSLGGKIPIRWTAPEAIAFRKFTSASDAWSYGIVMWEVMSFGERPYWDMSNQDVINAIEQDYRLPPPPDCPTSLHQLMLDCWQKDRNARPRFPQVVSALDKMIRNPASLKIVARENGGASHPLLDQRQPHYSAFGSVGEWLRAIKMGRYEESFAAAGFGSFELVSQISAEDLLRIGVTLAGHQKKILASVQHMKSQAKPGTPGGTGGPAPQY
B2: SGK2 (protein)
chain: LPDHCYRMNSSPAGTPSPQPSRANGNINLGPSANPNAQPTDFDFLKVIGKGNYGKVLLAKRKSDGAFYAVKVLQKKSILKKKEQSHIMAERSVLLKNVRHPFLVGLRYSFQTPEKLYFVLDYVNGGELFFHLQRERRFLEPRARFYAAEVASAIGYLHSLNIIYRDLKPENILLDCQGHVVLTDFGLCKEGVEPEDTTSTFCGTPEYLAPEVLRKEPYDRAVDWWCLGAVLYEMLHGLPPFYSQDVSQMYENILHQPLQIPGGRTVAACDLLQSLLHKDQRQRLGSKADFLEIKNHVFFSPINWDDLYHKRLTPPFNPNVTGPADLKHFDPEFTQEAVSKSIGCTPDTVASSSGASSAFLGFDYAPEDDDILDC
B3: RPS6KA1(RSK1) (protein)
chain: MPLAQLKEPWPLMELVPLDPENGQTSGEEAGLQPSKDEGVLKEISITHHVKAGSEKADPSHFELLKVLGQGSFGKVFLVRKVTRPDSGHLYAMKVLKKATLKVRDRVRTKMERDILADVNHPFVVKLHYAFQTEGKLYLILDFLRGGDLFTRLSKEVMFTEEDVKFYLAELALGLDHLHSLGIIYRDLKPENILLDEEGHIKLTDFGLSKEAIDHEKKAYSFCGTVEYMAPEVVNRQGHSHSADWWSYGVLMFEMLTGSLPFQGKDRKETMTLILKAKLGMPQFLSTEAQSLLRALFKRNPANRLGSGPDGAEEIKRHVFYSTIDWNKLYRREIKPPFKPAVAQPDDTFYFDTEFTSRTPKDSPGIPPSAGAHQLFRGFSFVATGLMEDDGKPRAPQAPLHSVVQQLHGKNLVFSDGYVVKETIGVGSYSECKRCVHKATNMEYAVKVIDKSKRDPSEEIEILLRYGQHPNIITLKDVYDDGKHVYLVTELMRGGELLDKILRQKFFSEREASFVLHTIGKTVEYLHSQGVVHRDLKPSNILYVDESGNPECLRICDFGFAKQLRAENGLLMTPCYTANFVAPEVLKRQGYDEGCDIWSLGILLYTMLAGYTPFANGPSDTPEEILTRIGSGKFTLSGGNWNTVSETAKDLVSKMLHVDPHQRLTAKQVLQHPWVTQKDKLPQSQLSHQDLQLVKGAMAATYSALNSSKPTPQLKPIESSILAQRRVRKLPSTTL
B4: RPS6KB2(p70S6K2) (protein)
chain: MAAVFDLDLETEEGSEGEGEPELSPADACPLAELRAAGLEPVGHYEEVELTETSVNVGPERIGPHCFELLRVLGKGGYGKVFQVRKVQGTNLGKIYAMKVLRKAKIVRNAKDTAHTRAERNILESVKHPFIVELAYAFQTGGKLYLILECLSGGELFTHLEREGIFLEDTACFYLAEITLALGHLHSQGIIYRDLKPENIMLSSQGHIKLTDFGLCKESIHEGAVTHTFCGTIEYMAPEILVRSGHNRAVDWWSLGALMYDMLTGSPPFTAENRKKTMDKIIRGKLALPPYLTPDARDLVKKFLKRNPSQRIGGGPGDAADVQRHPFFRHMNWDDLLAWRVDPPFRPCLQSEEDVSQFDTRFTRQTPVDSPDDTALSESANQAFLGFTYVAPSVLDSIKEGFSFQPKLRSPRRLNSSPRAPVSPLKFSPFEGFRPSPSLPEPTELPLPPLLPPPPPSTTAPLPIRPPSGTKKSKRGRGRPGR
B5: RPS6KA4(MSK2) (protein)
chain: MGDEDDDESCAVELRITEANLTGHEEKVSVENFELLKVLGTGAYGKVFLVRKAGGHDAGKLYAMKVLRKAALVQRAKTQEHTRTERSVLELVRQAPFLVTLHYAFQTDAKLHLILDYVSGGEMFTHLYQRQYFKEAEVRVYGGEIVLALEHLHKLGIIYRDLKLENVLLDSEGHIVLTDFGLSKEFLTEEKERTFSFCGTIEYMAPEIIRSKTGHGKAVDWWSLGILLFELLTGASPFTLEGERNTQAEVSRRILKCSPPFPPRIGPVAQDLLQRLLCKDPKKRLGAGPQGAQEVRNHPFFQGLDWVALAARKIPAPFRPQIRSELDVGNFAEEFTRLEPVYSPPGSPPPGDPRIFQGYSFVAPSILFDHNNAVMTDGLEAPGAGDRPGRAAVARSAMMQDSPFFQQYELDLREPALGQGSFSVCRRCRQRQSGQEFAVKILSRRLEANTQREVAALRLCQSHPNVVNLHEVHHDQLHTYLVLELLRGGELLEHIRKKRHFSESEASQILRSLVSAVSFMHEEAGVVHRDLKPENILYADDTPGAPVKIIDFGFARLRPQSPGVPMQTPCFTLQYAAPELLAQQGYDESCDLWSLGVILYMMLSGQVPFQGASGQGGQSQAAEIMCKIREGRFSLDGEAWQGVSEEAKELVRGLLTVDPAKRLKLEGLRGSSWLQDGSARSSPPLRTPDVLESSGPAVRSGLNATFMAFNRGKREGFFLKSVENAPLAKRRKQKLRSATASRRGSPAPANPGRAPVASKGAPRRANGPLPPS
B6: RPS6KB1(p70S6K) (protein)
chain: MRRRRRRDGFYPAPDFRDREAEDMAGVFDIDLDQPEDAGSEDELEEGGQLNESMDHGGVGPYELGMEHCEKFEISETSVNRGPEKIRPECFELLRVLGKGGYGKVFQVRKVTGANTGKIFAMKVLKKAMIVRNAKDTAHTKAERNILEEVKHPFIVDLIYAFQTGGKLYLILEYLSGGELFMQLEREGIFMEDTACFYLAEISMALGHLHQKGIIYRDLKPENIMLNHQGHVKLTDFGLCKESIHDGTVTHTFCGTIEYMAPEILMRSGHNRAVDWWSLGALMYDMLTGAPPFTGENRKKTIDKILKCKLNLPPYLTQEARDLLKKLLKRNAASRLGAGPGDAGEVQAHPFFRHINWEELLARKVEPPFKPLLQSEEDVSQFDSKFTRQTPVDSPDDSTLSESANQVFLGFEYVAPSVLES
B7: RPS6KA2(RSK3) (protein)
chain: MDLSMKKFAVRRFFSVYLRRKSRSKSSSLSRLEEEGVVKEIDISHHVKEGFEKADPSQFELLKVLGQGSYGKVFLVRKVKGSDAGQLYAMKVLKKATLKVRDRVRSKMERDILAEVNHPFIVKLHYAFQTEGKLYLILDFLRGGDLFTRLSKEVMFTEEDVKFYLAELALALDHLHSLGIIYRDLKPENILLDEEGHIKITDFGLSKEAIDHDKRAYSFCGTIEYMAPEVVNRRGHTQSADWWSFGVLMFEMLTGSLPFQGKDRKETMALILKAKLGMPQFLSGEAQSLLRALFKRNPCNRLGAGIDGVEEIKRHPFFVTIDWNTLYRKEIKPPFKPAVGRPEDTFHFDPEFTARTPTDSPGVPPSANAHHLFRGFSFVASSLIQEPSQQDLHKVPVHPIVQQLHGNNIHFTDGYEIKEDIGVGSYSVCKRCVHKATDTEYAVKIIDKSKRDPSEEIEILLRYGQHPNIITLKDVYDDGKFVYLVMELMRGGELLDRILRQRYFSEREASDVLCTITKTMDYLHSQGVVHRDLKPSNILYRDESGSPESIRVCDFGFAKQLRAGNGLLMTPCYTANFVAPEVLKRQGYDAACDIWSLGILLYTMLAGFTPFANGPDDTPEEILARIGSGKYALSGGNWDSISDAAKDVVSKMLHVDPHQRLTAMQVLKHPWVVNREYLSPNQLSRQDVHLVKGAMAATYFALNRTPQAPRLEPVLSSNLAQRRGMKRLTSTRL

Target: T1, Bovine, dephosphorylated, Myelin Basic …

| Protein | MBP Kinase Activity |
| --- | --- |
| B1 | Strong |
| B2 | Weak |
| B3 | Strong |
| B4 | Negative |
| B5 | Weak |
| B6 | Negative |
| B7 | Negative |
